Measurements as given in the supplement of paper PMC10567573.

B1: PDZK1 (parent)
chain: QKEQGLSDNILSPVMNGGVQTWTQ
B2: KRT34 (parent)
chain: YQSYFKTIEELQQKILCAKAENAR

Variants of: B1
Experiment: protein stability index of a GFP-peptide fusion (GPS, HEK-293T) (PSI 1-6); higher = more stable
Conditions: c terminus: a fixed tail appended
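Further: lentivirally expressed fusions sorted by FACS into six bins by GFP to DsRed ratio, PSI derived from sequencing read proportions per bin multiplied by bin number.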

Variant | protein stability index
QKEQGLSINILSPVMNGGVQTWTQ | 2.05
QKEQGLSVNILSPVMNGGVQTWTQ | 2.29
QKEQGLSRNILSPVMNGGVQTWTQ | 2.59
QKEQGLSFNILSPVMNGGVQTWTQ | 1.1
QKEQGLSYNILSPVMNGGVQTWTQ | 2.15
QKEQGLSCNILSPVMNGGVQTWTQ | 1.51
QKEQGLSSNILSPVMNGGVQTWTQ | 2.34
QKEQGLSPNILSPVMNGGVQTWTQ | 2.34
QKEQGLSLNILSPVMNGGVQTWTQ | 2.73
QKEQGLSENILSPVMNGGVQTWTQ | 3.04
QKEQGLSWNILSPVMNGGVQTWTQ | 2.4
QKEQGLSMNILSPVMNGGVQTWTQ | 1.92
QKEQGLSTNILSPVMNGGVQTWTQ | 2.39
QKEQGLSKNILSPVMNGGVQTWTQ | 2.1
QKEQGLSNNILSPVMNGGVQTWTQ | 2.68
QKEQGLSGNILSPVMNGGVQTWTQ | 3.29
QKETGLSDNILSPVMNGGVQTWTQ | 2.78
QKERGLSDNILSPVMNGGVQTWTQ | 3.73
QKEVGLSDNILSPVMNGGVQTWTQ | 2.52
QKEKGLSDNILSPVMNGGVQTWTQ | 2.08
QKECGLSDNILSPVMNGGVQTWTQ | 2.08
QKEEGLSDNILSPVMNGGVQTWTQ | 2.85
QKEDGLSDNILSPVMNGGVQTWTQ | 3.67
QKEWGLSDNILSPVMNGGVQTWTQ | 1.85
QKEPGLSDNILSPVMNGGVQTWTQ | 2.64
QKEHGLSDNILSPVMNGGVQTWTQ | 2.61

Variant | protein stability index
QKEYGLSDNILSPVMNGGVQTWTQ | 1.98
QKEFGLSDNILSPVMNGGVQTWTQ | 2.21
QKENGLSDNILSPVMNGGVQTWTQ | 2.29
QKELGLSDNILSPVMNGGVQTWTQ | 2.14
QKEMGLSDNILSPVMNGGVQTWTQ | 1.82
QKEQGLSDEILSPVMNGGVQTWTQ | 3.25
QKEQGLSDAILSPVMNGGVQTWTQ | 2.67
QKEQGLSDIILSPVMNGGVQTWTQ | 2.88
QKEQGLSDQILSPVMNGGVQTWTQ | 2.5
QKEQGLSDTILSPVMNGGVQTWTQ | 2.56
QKEQGLSDRILSPVMNGGVQTWTQ | 2.05
QKEQGLSDVILSPVMNGGVQTWTQ | 2.38
QKEQGLSDHILSPVMNGGVQTWTQ | 2.34
QKEQGLSDCILSPVMNGGVQTWTQ | 2.67
QKEQGLSDMILSPVMNGGVQTWTQ | 2.74
QKEQGLSDGILSPVMNGGVQTWTQ | 2.56
QKEQGLSDYILSPVMNGGVQTWTQ | 1.78
QKEQGLSDKILSPVMNGGVQTWTQ | 1.8
QKEQGLSDLILSPVMNGGVQTWTQ | 2.21
QKEQGLSDSILSPVMNGGVQTWTQ | 2.75
QKEQGLSDFILSPVMNGGVQTWTQ | 1.86
QKEQGLSDDILSPVMNGGVQTWTQ | 3.45
QKEQMLSDNILSPVMNGGVQTWTQ | 1.99
QKEQTLSDNILSPVMNGGVQTWTQ | 2.92
QKEQYLSDNILSPVMNGGVQTWTQ | 1.66
QKEQHLSDNILSPVMNGGVQTWTQ | 1.98

Variant | protein stability index
QKEQDLSDNILSPVMNGGVQTWTQ | 2.85
QKEQPLSDNILSPVMNGGVQTWTQ | 3.15
QKEQSLSDNILSPVMNGGVQTWTQ | 1.87
QKEQALSDNILSPVMNGGVQTWTQ | 2.4
QKEQFLSDNILSPVMNGGVQTWTQ | 2.44
QKEQELSDNILSPVMNGGVQTWTQ | 2.82
QKEQILSDNILSPVMNGGVQTWTQ | 2.48
QKEQRLSDNILSPVMNGGVQTWTQ | 2.7
QKEQQLSDNILSPVMNGGVQTWTQ | 2.7
QKEQWLSDNILSPVMNGGVQTWTQ | 2.29
QKEQCLSDNILSPVMNGGVQTWTQ | 3.57
QKEQNLSDNILSPVMNGGVQTWTQ | 2.7
QKEQGLSDNFLSPVMNGGVQTWTQ | 2.04
QKEQGLSDNCLSPVMNGGVQTWTQ | 3.03
QKEQGLSDNALSPVMNGGVQTWTQ | 2.89
QKEQGLSDNGLSPVMNGGVQTWTQ | 2.83
QKEQGLSDNHLSPVMNGGVQTWTQ | 2.96
QKEQGLSDNELSPVMNGGVQTWTQ | 3.89
QDEQGLSDNILSPVMNGGVQTWTQ | 3.23
QREQGLSDNILSPVMNGGVQTWTQ | 3.05
QMEQGLSDNILSPVMNGGVQTWTQ | 2.51
QYEQGLSDNILSPVMNGGVQTWTQ | 3.24
QTEQGLSDNILSPVMNGGVQTWTQ | 3.26
QEEQGLSDNILSPVMNGGVQTWTQ | 3.35
QQEQGLSDNILSPVMNGGVQTWTQ | 3.15
QGEQGLSDNILSPVMNGGVQTWTQ | 2.76

Variant | protein stability index
QNEQGLSDNILSPVMNGGVQTWTQ | 2.88
QFEQGLSDNILSPVMNGGVQTWTQ | 2.26
QPEQGLSDNILSPVMNGGVQTWTQ | 2.67
QSEQGLSDNILSPVMNGGVQTWTQ | 3.13
QCEQGLSDNILSPVMNGGVQTWTQ | 3.57
QHEQGLSDNILSPVMNGGVQTWTQ | 2.81
QIEQGLSDNILSPVMNGGVQTWTQ | 2.42
QKHQGLSDNILSPVMNGGVQTWTQ | 2.24
QKFQGLSDNILSPVMNGGVQTWTQ | 1.67
QKDQGLSDNILSPVMNGGVQTWTQ | 3.51
QKLQGLSDNILSPVMNGGVQTWTQ | 2.12
QKIQGLSDNILSPVMNGGVQTWTQ | 2.67
QKVQGLSDNILSPVMNGGVQTWTQ | 2.05
QKRQGLSDNILSPVMNGGVQTWTQ | 1.52
QKPQGLSDNILSPVMNGGVQTWTQ | 2.93
QKGQGLSDNILSPVMNGGVQTWTQ | 1.82
QKAQGLSDNILSPVMNGGVQTWTQ | 3.02
QKTQGLSDNILSPVMNGGVQTWTQ | 2.88
QKSQGLSDNILSPVMNGGVQTWTQ | 2.02
QKMQGLSDNILSPVMNGGVQTWTQ | 2.61
QKCQGLSDNILSPVMNGGVQTWTQ | 2.05
QKKQGLSDNILSPVMNGGVQTWTQ | 4.26
QKWQGLSDNILSPVMNGGVQTWTQ | 2.17
QKQQGLSDNILSPVMNGGVQTWTQ | 2.18
QKYQGLSDNILSPVMNGGVQTWTQ | 1.68
VKEQGLSDNILSPVMNGGVQTWTQ | 1.96

Variant | protein stability index
PKEQGLSDNILSPVMNGGVQTWTQ | 3.23
IKEQGLSDNILSPVMNGGVQTWTQ | 2.12
WKEQGLSDNILSPVMNGGVQTWTQ | 1.94
GKEQGLSDNILSPVMNGGVQTWTQ | 2.15
FKEQGLSDNILSPVMNGGVQTWTQ | 1.97
TKEQGLSDNILSPVMNGGVQTWTQ | 2.7
YKEQGLSDNILSPVMNGGVQTWTQ | 2.47
MKEQGLSDNILSPVMNGGVQTWTQ | 2.98
SKEQGLSDNILSPVMNGGVQTWTQ | 2.1
DKEQGLSDNILSPVMNGGVQTWTQ | 3.37
NKEQGLSDNILSPVMNGGVQTWTQ | 2.75
EKEQGLSDNILSPVMNGGVQTWTQ | 3.26
KKEQGLSDNILSPVMNGGVQTWTQ | 2.58
LKEQGLSDNILSPVMNGGVQTWTQ | 2.41
CKEQGLSDNILSPVMNGGVQTWTQ | 1.91
AKEQGLSDNILSPVMNGGVQTWTQ | 2.61
RKEQGLSDNILSPVMNGGVQTWTQ | 2.02
QKEQGLPDNILSPVMNGGVQTWTQ | 3.36
QKEQGLGDNILSPVMNGGVQTWTQ | 3.19
QKEQGLTDNILSPVMNGGVQTWTQ | 2.09
QKEQGLIDNILSPVMNGGVQTWTQ | 2.48
QKEQGLCDNILSPVMNGGVQTWTQ | 3.27
QKEQGLMDNILSPVMNGGVQTWTQ | 2.68
QKEQGLEDNILSPVMNGGVQTWTQ | 3.43
QKEQGLYDNILSPVMNGGVQTWTQ | 2.12
QKEQGLDDNILSPVMNGGVQTWTQ | 2.54

Variant | protein stability index
QKEQGLADNILSPVMNGGVQTWTQ | 2.51
QKEQGLQDNILSPVMNGGVQTWTQ | 2.13
QKEQGLFDNILSPVMNGGVQTWTQ | 2
QKEQGLNDNILSPVMNGGVQTWTQ | 2.77
QKEQGLKDNILSPVMNGGVQTWTQ | 2.18
QKEQGNSDNILSPVMNGGVQTWTQ | 3.29
QKEQGFSDNILSPVMNGGVQTWTQ | 1.87
QKEQGCSDNILSPVMNGGVQTWTQ | 2.98
QKEQGWSDNILSPVMNGGVQTWTQ | 2.56
QKEQGPSDNILSPVMNGGVQTWTQ | 3.03
QKEQGYSDNILSPVMNGGVQTWTQ | 2.49
QKEQGDSDNILSPVMNGGVQTWTQ | 2.65
QKEQGASDNILSPVMNGGVQTWTQ | 2.96
QKEQGKSDNILSPVMNGGVQTWTQ | 4.46
QKEQGGSDNILSPVMNGGVQTWTQ | 2.61
QKEQGTSDNILSPVMNGGVQTWTQ | 3.27
QKEQGMSDNILSPVMNGGVQTWTQ | 2.12
QKEQGESDNILSPVMNGGVQTWTQ | 3.65
QKEQGRSDNILSPVMNGGVQTWTQ | 3.71
QKEQGHSDNILSPVMNGGVQTWTQ | 3.12
QKEQGQSDNILSPVMNGGVQTWTQ | 3.92

Variants of: B2
Experiment: as above
Conditions: c terminus: a fixed tail appended

Variant | protein stability index
YMSYFKTIEELQQKILCAKAENAR | 2.14
YQSYFKTIEELQNKILCAKAENAR | 1.92
YQSYFKTIEELQQKILCANAENAR | 1.83
YQSYFKTIEELQQKIDCAKAENAR | 1.96
YQSYFKTIEELQQKIKCAKAENAR | 1.92
YQSYFKTIEELQQKINCAKAENAR | 1.75
YQSYFKTIEELQQKIICAKAENAR | 1.67
YQSYFKTIEELQQKILCAKAENGR | 1.96
YQSYFKTIEELFQKILCAKAENAR | 2.02
YQSYFKTIEELVQKILCAKAENAR | 1.55
YQSYFKTIEEAQQKILCAKAENAR | 1.79
YQSYFKTIEELQQKILFAKAENAR | 1.97
YQSYNKTIEELQQKILCAKAENAR | 3.02
YQSYPKTIEELQQKILCAKAENAR | 1.89
AQSYFKTIEELQQKILCAKAENAR | 3.3
SQSYFKTIEELQQKILCAKAENAR | 2.93
YQLYFKTIEELQQKILCAKAENAR | 1.77
YQTYFKTIEELQQKILCAKAENAR | 1.61
YQSYFKTIEELQQKMLCAKAENAR | 1.89

Variant | protein stability index
YQSYFKTIEELQQKYLCAKAENAR | 2.25
YQSYFLTIEELQQKILCAKAENAR | 2.3
YQSYFKTIEELQQKILCDKAENAR | 2.16
YQSYFKTIVELQQKILCAKAENAR | 3.47
YQSYFKTIEELQQWILCAKAENAR | 3.3
YQSYFKTIEELQQAILCAKAENAR | 1.41
YQSYFKTIEELQQKILCAKAENAQ | 3.56
YQSYFKTSEELQQKILCAKAENAR | 1.77
YQSYFKTGEELQQKILCAKAENAR | 1.48
YQSYFKTIEELQQKILCAKAEQAR | 2.09
YQSYFKTIEELQQKILCAKAEYAR | 1.59
YQSYFKTIEKLQQKILCAKAENAR | 1.81
YQSYFKDIEELQQKILCAKAENAR | 2.44
YQSYFKGIEELQQKILCAKAENAR | 1.96
YQSYFKYIEELQQKILCAKAENAR | 2.24
YQSYFKRIEELQQKILCAKAENAR | 1.86
YQSYFKTIEELQQKILCAKATNAR | 2.05
YQSYFKTIEELQQKILCAKAMNAR | 1.26
